Results taken from patent US20260055210A1.
Values joined by “and” are separate entries in the source; they are usually repeats but may differ in a detail not shown here. Identical values can stand only once.

Experiments:
[1] = molecular target: Flt3 receptor on OCI-AML5 cells (human) (UniProt P36888); assay: cell-based or functional assay
[2] = molecular target: human thrombopoietin receptor cMPL expressed on the surface of Freestyle HEK293 cells (human) (UniProt P40238); assay: flow cytometry on human cMPL-expressing HEK293 cells, fluorescent anti-IgG1 secondary antibody
[3] = molecular target: mouse thrombopoietin receptor cMPL expressed on the surface of Freestyle HEK293 cells (mouse) (UniProt Q08351); assay: flow cytometry on mouse cMPL-expressing HEK293 cells, fluorescent anti-IgG1 secondary antibody
[4] = molecular target: cMPL/TPO receptor on M-07e cells (human) (UniProt P40238); assay: cell-based or functional assay

Sequence of mouse thrombopoietin receptor cMPL expressed on the surface of Freestyle HEK293 cells (mouse) (Q08351 26-625): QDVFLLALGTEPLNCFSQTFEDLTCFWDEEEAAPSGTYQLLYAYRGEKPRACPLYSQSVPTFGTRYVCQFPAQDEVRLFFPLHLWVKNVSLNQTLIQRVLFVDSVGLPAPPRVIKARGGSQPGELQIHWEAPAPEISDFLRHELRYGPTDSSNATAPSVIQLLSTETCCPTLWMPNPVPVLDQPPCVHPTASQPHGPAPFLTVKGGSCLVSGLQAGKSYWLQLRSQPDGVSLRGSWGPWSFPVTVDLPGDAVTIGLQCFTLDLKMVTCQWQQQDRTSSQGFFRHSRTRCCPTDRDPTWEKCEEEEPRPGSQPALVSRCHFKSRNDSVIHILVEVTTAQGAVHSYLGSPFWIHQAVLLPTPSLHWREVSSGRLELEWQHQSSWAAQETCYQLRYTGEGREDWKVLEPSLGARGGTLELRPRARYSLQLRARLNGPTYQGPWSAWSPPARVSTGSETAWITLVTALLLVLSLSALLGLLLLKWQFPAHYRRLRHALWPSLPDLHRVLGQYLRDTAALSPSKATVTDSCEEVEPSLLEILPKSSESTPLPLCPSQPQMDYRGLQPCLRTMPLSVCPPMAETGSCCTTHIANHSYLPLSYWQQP
Sequence of Flt3 receptor on OCI-AML5 cells (human) (P36888 27-993): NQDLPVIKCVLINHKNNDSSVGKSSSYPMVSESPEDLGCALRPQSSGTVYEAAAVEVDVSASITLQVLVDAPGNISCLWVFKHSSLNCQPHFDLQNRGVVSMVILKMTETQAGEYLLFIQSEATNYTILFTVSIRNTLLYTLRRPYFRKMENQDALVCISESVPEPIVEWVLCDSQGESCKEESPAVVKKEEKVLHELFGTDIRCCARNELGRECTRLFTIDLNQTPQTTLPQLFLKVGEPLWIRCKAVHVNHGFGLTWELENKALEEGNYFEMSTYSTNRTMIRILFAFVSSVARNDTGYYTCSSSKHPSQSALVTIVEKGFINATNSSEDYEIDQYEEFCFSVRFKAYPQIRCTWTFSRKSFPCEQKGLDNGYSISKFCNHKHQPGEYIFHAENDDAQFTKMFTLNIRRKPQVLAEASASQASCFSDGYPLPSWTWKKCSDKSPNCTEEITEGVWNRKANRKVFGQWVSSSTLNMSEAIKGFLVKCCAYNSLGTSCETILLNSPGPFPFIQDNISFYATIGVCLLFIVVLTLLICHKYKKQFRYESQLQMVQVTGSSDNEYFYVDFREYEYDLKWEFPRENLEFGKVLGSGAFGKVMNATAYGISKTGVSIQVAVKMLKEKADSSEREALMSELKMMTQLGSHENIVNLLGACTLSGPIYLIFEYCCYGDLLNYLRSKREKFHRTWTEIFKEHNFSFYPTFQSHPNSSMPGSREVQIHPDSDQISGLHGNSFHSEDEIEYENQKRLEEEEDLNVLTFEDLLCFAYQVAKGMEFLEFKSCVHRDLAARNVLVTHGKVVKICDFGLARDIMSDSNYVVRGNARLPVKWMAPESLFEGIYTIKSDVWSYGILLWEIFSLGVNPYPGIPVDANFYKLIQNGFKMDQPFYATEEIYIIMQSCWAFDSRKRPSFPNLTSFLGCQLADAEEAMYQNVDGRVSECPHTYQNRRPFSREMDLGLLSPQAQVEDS

Substance: FL monomer Fc fusion polypeptide
- apoptosis of starved OCI-AML5 cells, Annexin V flow cytometry [1]: 53.8%
- live cells, starved OCI-AML5, Annexin V flow cytometry [1]: 45.8%
- percent of OCI-AML5 cells positive for Erk1/2 phosphorylation [1]: 75%

Substance: FLT3L-romiplostim fusion polypeptide without a His-Tag (Fc fusion)
- percentage of bound cells [2]: > 30 percent and 40 percent
- percentage of bound cells [3]: > 40 percent and 50 percent

Substance: Nplate (Romiplostim) (Fc fusion)
- percentage of bound cells [2]: > 30 percent
- percentage of bound cells [3]: > 40 percent
- EC50 of M-07e cell proliferation, XTT assay [4]: 12.1 nM
- percent of M-07e cells positive for Akt phosphorylation [4]: 20%
- percent of M-07e cells positive for Erk1/2 phosphorylation at 6.67 nM [4]: 60%
- percent of M-07e cells positive for Erk1/2 phosphorylation at 13.33 nM [4]: 60%
- percent of M-07e cells positive for Erk1/2 phosphorylation, 25 ng/ml to 800 ng/ml romiplostim [4]: 60%

Substance: thrombopoietin mimetic (TPOm) peptide
- percent of M-07e cells positive for Akt phosphorylation [4]: < 5%
- percent of M-07e cells positive for Erk1/2 phosphorylation at 25 ng/ml TPOm [4]: < 5%
- percent of M-07e cells positive for Erk1/2 phosphorylation at 800 ng/ml TPOm [4]: 20%
